Residue numbers refer to the chain shown, from its start.
T1: full length human ACVR1 (amino acids 1-509, R206H, of accession #Q04771) on HEK293/BRE-luc/hACVR1-R206H-clone … (human, UniProt Q04771 21-509)
T1 construct: Expressed as amino acids 1-509; also called HEK293/hACVR1-R206H
T1 sequence: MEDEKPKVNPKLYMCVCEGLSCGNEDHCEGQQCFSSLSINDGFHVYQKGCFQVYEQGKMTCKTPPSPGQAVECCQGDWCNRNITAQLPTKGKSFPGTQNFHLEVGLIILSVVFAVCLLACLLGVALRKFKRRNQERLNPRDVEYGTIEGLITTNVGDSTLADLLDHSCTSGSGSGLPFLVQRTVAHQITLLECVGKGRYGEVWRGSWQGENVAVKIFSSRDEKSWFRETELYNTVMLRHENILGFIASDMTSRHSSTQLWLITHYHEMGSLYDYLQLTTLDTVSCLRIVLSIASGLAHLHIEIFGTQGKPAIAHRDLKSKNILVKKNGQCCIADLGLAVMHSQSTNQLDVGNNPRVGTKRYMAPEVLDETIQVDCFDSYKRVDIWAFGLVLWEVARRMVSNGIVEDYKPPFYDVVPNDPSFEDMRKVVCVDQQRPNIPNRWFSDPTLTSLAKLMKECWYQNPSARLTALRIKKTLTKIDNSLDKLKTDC

T2: human ACVR1 extracellular domain expressed with a C-terminal myc-myc-hexahistidine tag (human)
T2 construct: also called hACVR1-mmh; hACVR1.mmh
T2 chain: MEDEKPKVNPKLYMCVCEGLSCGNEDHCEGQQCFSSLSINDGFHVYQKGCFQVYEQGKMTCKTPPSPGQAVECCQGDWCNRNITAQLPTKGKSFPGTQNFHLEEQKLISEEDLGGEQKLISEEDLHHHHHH

T3: mouse ACVR1 extracellular domain expressed with a C-terminal myc-myc-hexahistidine tag (mouse)
T3 construct: also called mACVR1-mmh; mACVR1.mmh
T3 chain: T2 chain with M1V, P10Q

B1: REGN 5168 (antibody, human IgG4 S228P, kappa, V domains shown)
VH: QVQLVQSGAEVKEPGASVKVSCKASGYTFAEYYMHWVRQAPGQGLEWMGAINPSGSHTSYAQKFQGRVTMTRDTSTSTVYMELSSLRSEDTAVYYCARSISGKRGGDYYGMDVWGQGTTVTVSS
VL: DIQMTQSPSTLSASVGDRVTITCRASQSISSWLAWYQQKPGKAPKLLIYKASSLESGVPSRFSGSGSGTEFTLTISSLQPDDFATYYCQQYSIFPFTFGGGTKVEIKR
notes: also called REGN 5168-L1
B2: REGN 5166 (antibody, human IgG4 S228P, kappa, V domains shown)
VH: QVQLVESGGGVVQPGRSLRLSCAASGFTFSAYWMHWVRQAPGKGLEWVAVISYDGSNKYYADSVKGRFTISRDHSKNTLYLQMNSLRAEDTAVYYCAKGDAYDSWRILLGGDYYGMDVWGQGTTVTVSS
VL: EIVLTQSPGTLSLSPGERATLSCRASQSVSSSYLAWYQQKPGQAPRPLIYGASSRATGIPDRFSGSGSGTDFTLTISRLEPEDFAVYYCQQGGDAPPYTFGGGTKVEIKR
notes: also called REGN 5166-L1
B3: REGN 5167 (antibody, human IgG4 S228P, kappa, V domains shown)
VH: QLQLQESGPGLVKPSETLSLTCTVSGGSITSSSYYWAWIRQPPGKGLEWIGKIYYSGSTHYNPSLKSRVTISVDTSKNQFSLKLSSVTAADTAVYYCARVGGHGYGDSAGLAFDIWGQGTMVTVSS
VL: EIVLTQSPGTLSLSPGERATLSCRASQSVSSAFLAWYQQKPGQAPRLLIYGASYRHTGIPDRFSGSGSGTDFTLTISRLEPEDFAVYYCQHYGVGPRTFGGGTKVEIKR
notes: also called REGN 5167-L1

Target: T1, full length human ACVR1 (amino acids …)
Experiment: flow cytometry, 70 nM antibody on HEK293/hACVR1-R206H cells, 4C
Experimental: To assess binding of the anti-ACVR1 antibodies of the invention to ACVR1 receptors expressed on the cell surface, 70 nM of the antibodies were incubated with 5×10⁵ cells/well at 4° C. for 30 minutes in PBS (without calcium and magnesium) containing 2% FBS (flow buffer). […] Cells were fixed using BD CytoFix™ (Becton Dickinson, # 554655) and analyzed on IQue® Flow Cytometer (Intellicyt®). Unstained and secondary antibody alone controls were also tested on cells. The results were analyzed using ForeCyt® (IntelliCyt®) software to determine the geometric means of fluorescence for viable cells and the binding ratio was calculated by normalizing the geometric mean value of the test condition by the geometric mean value of the corresponding unstained cells.

Row | MFI-Normalized to Unstained Control | Binder
1 | 2250 fold | B1
2 | 2000 fold | B2
3 | 1870 fold | B3

Target: T2, human ACVR1 extracellular domain …
Experiment: SPR Biacore T200, mAb captured by anti-human Fc, hACVR1-mmh injected, 37C
Experimental: (§1) Equilibrium dissociation constants (KD) for ACVR1 binding to purified anti-ACVR1 monoclonal antibodies were determined using a real-time surface plasmon resonance (SPR) based Biacore T200 biosensor. All binding studies were performed in 10 mM HEPES, 150 mM NaCl, 3 mM EDTA, and 0.05% v/v surfactant Tween-20, pH 7.4 (HBS-EP) running buffer at […]. The Biacore CM5 sensor surface was first derivatized by amine coupling with a monoclonal mouse anti-human Fc antibody (REGN2567) to capture anti-ACVR1 monoclonal antibodies. Different concentrations of ACVR1 reagents, human ACVR1 extracellular domain expressed with a C-terminal myc-myc-hexahistidine tag (hACVR1-mmh; REGN3111, SEQ ID NO: 63), mouse ACVR1 extracellular domain expressed with a C-terminal myc-myc-hexahistidine tag (mACVR1-mmh; REGN3407, SEQ ID NO: 65), human ACVR1 extracellular domain expressed with a C-terminal mouse IgG2a Fc tag (hACVR1-mFc; REGN3112, SEQ ID NO: 64); and mouse ACVR1 extracellular domain expressed with a C-terminal mouse IgG2a Fc tag (mACVR1-mFc, R&D system), at concentrations ranging from 0.41 nM to 100 nM in a series of 3-fold dilutions prepared in HBS-EP running buffer were injected at a flow rate of 50 μL/min for 1.5 minutes. The dissociation of different ACVR1 reagents bound to anti-ACVR1 monoclonal antibodies was monitored for 20 minutes in HBS-EP running buffer. At the end of each cycle, the anti-ACVR1 monoclonal antibodies capture surface was regenerated using a 12 sec injection of 20 mM H3PO4. The association rate (ka) and dissociation rate (kd) were determined by fitting the real-time binding sensorgrams to a 1:1 binding model with mass transport limitation using Scrubber 2.0c curve-fitting software. Binding dissociation equilibrium constant (KD) and dissociative half-life (t½) were calculated from the kinetic rates as: […]
(§2) Binding kinetics parameters for different ACVR1 reagents to anti-ACVR1 monoclonal antibodies of the invention at 37° C. are shown in Table 5 through Table 8.

Row | 100 nM Ag Bound (RU) | Kd | koff | kon | t½ | Binder
4 | 42 RU | 1.21 nM | 0.00159 s⁻¹ | 1.31e+06 M⁻¹ s⁻¹ | 0.117 h | B1
5 | 43 RU | 0.26 nM | 0.000176 s⁻¹ | 677000 M⁻¹ s⁻¹ | 1.08 h | B2
6 | 43 RU | 0.227 nM | 0.000163 s⁻¹ | 718000 M⁻¹ s⁻¹ | 1.18 h | B3

Target: T3, mouse ACVR1 extracellular domain …
Experiment: SPR Biacore T200, mAb captured by anti-human Fc, mACVR1-mmh injected, 37C
Experimental: as §1, §2

Row | 100 nM Ag Bound (RU) | Kd | koff | kon | t½ | Binder
7 | 42 RU | 1.24 nM | 0.00167 s⁻¹ | 1.34e+06 M⁻¹ s⁻¹ | 0.117 h | B1
8 | 43 RU | 0.268 nM | 0.000181 s⁻¹ | 674000 M⁻¹ s⁻¹ | 1.07 h | B2
9 | 43 RU | 0.226 nM | 0.000161 s⁻¹ | 713000 M⁻¹ s⁻¹ | 1.2 h | B3
